Values quoted from earlier work as cited in publication PMC3430373.

Target: S10:NusB complex (Escherichia coli) (UniProt C4ZUH6)
Assay: NMR

NusG CTD (from UniProt P0AFG0)
Kd: 50 µM
